± gives the uncertainty stated by the source.
B1: Chromodomain-helicase-DNA-binding protein 4, residues 444 to 496; numbered along this chain, Q14839 (parent)
chain: EDDHHMEFCRVCKDGGELLCCDTCPSSYHIHCLNPPLPEIPNGEWLCPRCTCP

Variants of: B1
Assay: abundance fitness (aPCA) (normalised: wild type 0, dead -1); higher = more abundant; growth selection in yeast, the domain comes from the species named
Conditions: Homo sapiens
Variant P35Q has an abundance fitness of -0.226 ± 0.064.
P35L showed an abundance fitness of -0.378 ± 0.046.
Work on P35T yielded an abundance fitness of -0.198 ± 0.051.
P35D gave an abundance fitness of -0.262 ± 0.093.
In the case of P35W, the abundance fitness is reported as -0.593 ± 0.047.
P35A gave an abundance fitness of -0.296 ± 0.057.
P35I gave an abundance fitness of -0.432 ± 0.078.
For P35Y, the abundance fitness was -0.301 ± 0.052.
Variant P35S has an abundance fitness of -0.261 ± 0.042.
P35K showed an abundance fitness of -0.199 ± 0.072.
Work on P35N yielded an abundance fitness of -0.302 ± 0.064.
P35H gave an abundance fitness of -0.386 ± 0.071.
Variant P35F has an abundance fitness of -0.45 ± 0.05.
Work on P35G yielded an abundance fitness of -0.289 ± 0.067.
Variant P35E has an abundance fitness of -0.076 ± 0.088.
Work on P35V yielded an abundance fitness of -0.399 ± 0.059.
Variant N42R has an abundance fitness of -0.022 ± 0.053.
In the case of N42L, the abundance fitness is reported as -0.077 ± 0.047.
Work on N42P yielded an abundance fitness of -0.065 ± 0.055.
For N42Y, the abundance fitness was -0.197 ± 0.049.
Work on N42K yielded an abundance fitness of 0.081 ± 0.063.
Variant N42V has an abundance fitness of 0.032 ± 0.044.
Work on N42W yielded an abundance fitness of -0.253 ± 0.058.
Variant N42C has an abundance fitness of -0.061 ± 0.054.
With N42M the abundance fitness was -0.127 ± 0.06.
Work on N42S yielded an abundance fitness of -0.063 ± 0.05.
Work on N42F yielded an abundance fitness of -0.219 ± 0.053.
Variant N42I has an abundance fitness of -0.096 ± 0.055.
N42G showed an abundance fitness of 0.038 ± 0.052.
In the case of N42D, the abundance fitness is reported as -0.085 ± 0.054.
N42Q gave an abundance fitness of 0.005 ± 0.069.
For N42H, the abundance fitness was -0.094 ± 0.055.
For N42A, the abundance fitness was 0.037 ± 0.06.
Work on P41E yielded an abundance fitness of -0.2 ± 0.06.
P41T showed an abundance fitness of -0.114 ± 0.046.
Variant P41A has an abundance fitness of -0.146 ± 0.059.
In the case of P41M, the abundance fitness is reported as -0.187 ± 0.05.
For P41V, the abundance fitness was -0.154 ± 0.046.
In the case of P41H, the abundance fitness is reported as -0.142 ± 0.053.
In the case of P41D, the abundance fitness is reported as -0.282 ± 0.097.
For P41L, the abundance fitness was -0.228 ± 0.056.
P41N showed an abundance fitness of 0.029 ± 0.081.
Variant P41Q has an abundance fitness of -0.18 ± 0.062.
With P41K the abundance fitness was -0.118 ± 0.067.
In the case of P41G, the abundance fitness is reported as -0.133 ± 0.065.
In the case of P41F, the abundance fitness is reported as -0.06 ± 0.1.
For P41R, the abundance fitness was -0.144 ± 0.053.
In the case of P41S, the abundance fitness is reported as -0.226 ± 0.059.
P41C gave an abundance fitness of -0.135 ± 0.092.
With P41Y the abundance fitness was -0.463 ± 0.093.
In the case of P41I, the abundance fitness is reported as -0.106 ± 0.062.
With L37M the abundance fitness was -0.115 ± 0.05.
In the case of L37N, the abundance fitness is reported as -0.244 ± 0.056.
In the case of L37Y, the abundance fitness is reported as -0.274 ± 0.057.
Variant L37I has an abundance fitness of -0.049 ± 0.066.
In the case of L37W, the abundance fitness is reported as -0.248 ± 0.063.
With L37C the abundance fitness was -0.194 ± 0.053.
Work on L37S yielded an abundance fitness of -0.194 ± 0.042.
L37Q showed an abundance fitness of -0.135 ± 0.054.
For L37V, the abundance fitness was -0.066 ± 0.053.
Variant L37R has an abundance fitness of -0.233 ± 0.051.
Work on L37P yielded an abundance fitness of 0.018 ± 0.044.
For L37F, the abundance fitness was -0.271 ± 0.056.
L37E gave an abundance fitness of -0.249 ± 0.094.
With L37T the abundance fitness was -0.23 ± 0.055.
Variant P36A has an abundance fitness of -0.035 ± 0.048.
P36V gave an abundance fitness of -0.22 ± 0.068.
For P36M, the abundance fitness was -0.274 ± 0.052.
Work on P36L yielded an abundance fitness of -0.458 ± 0.045.
Variant P36R has an abundance fitness of -0.095 ± 0.046.
P36T showed an abundance fitness of -0.18 ± 0.049.
P36D showed an abundance fitness of -0.323 ± 0.1.
Work on P36W yielded an abundance fitness of -0.546 ± 0.086.
P36C showed an abundance fitness of -0.546 ± 0.088.
In the case of P36S, the abundance fitness is reported as -0.1 ± 0.047.
P36Y gave an abundance fitness of -0.539 ± 0.06.
P36I gave an abundance fitness of -0.195 ± 0.054.
Work on P36G yielded an abundance fitness of -0.244 ± 0.064.
With P36F the abundance fitness was -0.604 ± 0.068.
Work on P36N yielded an abundance fitness of -0.294 ± 0.074.
Work on P36E yielded an abundance fitness of -0.33 ± 0.1.
In the case of P36Q, the abundance fitness is reported as -0.026 ± 0.062.
Variant P36K has an abundance fitness of 0.102 ± 0.073.
E39W gave an abundance fitness of -0.35 ± 0.086.
With E39S the abundance fitness was 0.021 ± 0.044.
With E39M the abundance fitness was -0.095 ± 0.071.
With E39Y the abundance fitness was -0.201 ± 0.068.
Variant E39F has an abundance fitness of -0.056 ± 0.063.
E39H gave an abundance fitness of -0.132 ± 0.058.
Work on E39R yielded an abundance fitness of -0.09 ± 0.057.
Work on E39D yielded an abundance fitness of -0.292 ± 0.099.
Variant E39A has an abundance fitness of 0.011 ± 0.073.
In the case of E39Q, the abundance fitness is reported as -0.052 ± 0.074.
Variant E39G has an abundance fitness of -0.056 ± 0.06.
With E39V the abundance fitness was -0.025 ± 0.05.
For E39T, the abundance fitness was 0.025 ± 0.051.
Work on E39N yielded an abundance fitness of 0.026 ± 0.058.
E39L showed an abundance fitness of -0.189 ± 0.048.
For E39K, the abundance fitness was 0.121 ± 0.08.
With E39C the abundance fitness was -0.178 ± 0.057.
With E39I the abundance fitness was -0.026 ± 0.045.
Variant E39P has an abundance fitness of -0.152 ± 0.049.
In the case of P38Q, the abundance fitness is reported as 0.085 ± 0.062.
With P38L the abundance fitness was -0.115 ± 0.046.
Work on P38W yielded an abundance fitness of -0.172 ± 0.08.
P38H showed an abundance fitness of -0.008 ± 0.061.
P38V gave an abundance fitness of -0.113 ± 0.058.
P38D gave an abundance fitness of -0.031 ± 0.064.
In the case of P38G, the abundance fitness is reported as -0.196 ± 0.078.
P38E gave an abundance fitness of -0.096 ± 0.099.
With P38N the abundance fitness was 0.065 ± 0.066.
P38M showed an abundance fitness of -0.082 ± 0.043.
P38K showed an abundance fitness of 0.088 ± 0.068.
P38I gave an abundance fitness of -0.059 ± 0.051.
Variant P38S has an abundance fitness of -0.075 ± 0.045.
P38F showed an abundance fitness of -0.153 ± 0.054.
For P38A, the abundance fitness was -0.014 ± 0.06.
P38R gave an abundance fitness of -0.046 ± 0.049.
P38T showed an abundance fitness of -0.003 ± 0.05.
Variant G43C has an abundance fitness of -0.16 ± 0.054.
In the case of G43K, the abundance fitness is reported as 0.03 ± 0.07.
Work on G43I yielded an abundance fitness of -0.144 ± 0.047.
G43D showed an abundance fitness of -0.151 ± 0.057.
Work on G43V yielded an abundance fitness of -0.075 ± 0.053.
Variant G43N has an abundance fitness of -0.068 ± 0.078.
With G43Q the abundance fitness was -0.032 ± 0.074.
For G43P, the abundance fitness was -0.287 ± 0.058.
Work on G43H yielded an abundance fitness of -0.13 ± 0.067.
Variant G43F has an abundance fitness of -0.188 ± 0.058.
G43L gave an abundance fitness of -0.201 ± 0.049.
Work on G43R yielded an abundance fitness of -0.044 ± 0.059.
In the case of G43S, the abundance fitness is reported as -0.061 ± 0.05.
G43A showed an abundance fitness of -0.079 ± 0.043.
Variant G43E has an abundance fitness of -0.07 ± 0.047.
Variant G43M has an abundance fitness of -0.195 ± 0.067.
With N34H the abundance fitness was -0.262 ± 0.069.
For N34P, the abundance fitness was -0.219 ± 0.054.
Work on N34R yielded an abundance fitness of -0.205 ± 0.053.
Variant N34I has an abundance fitness of -0.075 ± 0.051.
Work on N34V yielded an abundance fitness of -0.073 ± 0.061.
In the case of N34E, the abundance fitness is reported as -0.145 ± 0.091.
Work on N34L yielded an abundance fitness of -0.197 ± 0.046.
N34K showed an abundance fitness of 0.052 ± 0.071.
With N34F the abundance fitness was -0.158 ± 0.042.
N34G showed an abundance fitness of -0.345 ± 0.075.
Work on N34M yielded an abundance fitness of -0.127 ± 0.068.
For N34T, the abundance fitness was -0.014 ± 0.05.
With N34S the abundance fitness was 0.018 ± 0.048.
In the case of I40E, the abundance fitness is reported as 0.056 ± 0.092.
I40F gave an abundance fitness of -0.057 ± 0.07.
For I40T, the abundance fitness was -0.005 ± 0.05.
In the case of I40S, the abundance fitness is reported as -0.023 ± 0.044.
Work on I40M yielded an abundance fitness of -0.106 ± 0.067.
I40W showed an abundance fitness of -0.041 ± 0.071.
Variant I40K has an abundance fitness of 0.11 ± 0.065.
I40N gave an abundance fitness of -0.066 ± 0.057.
With I40G the abundance fitness was -0.007 ± 0.059.
I40Y gave an abundance fitness of 0.016 ± 0.059.
With I40P the abundance fitness was 0.112 ± 0.052.
In the case of I40A, the abundance fitness is reported as 0.07 ± 0.06.
Variant I40D has an abundance fitness of -0.152 ± 0.11.
I40Q showed an abundance fitness of 0.01 ± 0.067.
I40L showed an abundance fitness of 0.01 ± 0.041.
I40H showed an abundance fitness of 0.017 ± 0.052.
I40C gave an abundance fitness of 0.019 ± 0.048.
Work on I40R yielded an abundance fitness of 0.151 ± 0.052.
Variant I40V has an abundance fitness of 0.055 ± 0.043.
